A short description of this data set: protein stability index of a GFP-peptide fusion (GPS, HEK-293T) (PSI 1-6); higher = more stable. As to conditions: c terminus: a fixed tail appended.

In the supplement of paper PMC10567573 one finds protein stability index data, which are given here for 35 sequences.

± gives the standard deviation.
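Also: 24-mer peptide tiles fused after GFP, lentivirally expressed, FACS-sorted into six equal bins by GFP/DsRed ratio, decoded by Illumina sequencing, PSI is the read-weighted mean bin number.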

As to WDPACLPLPPPPPAFKSMEVANFY [CEBPB], the protein stability index is 3.02 ± 0.28 (treatment: DMSO) and 3.28 ± 0.47 (treatment: MLN4924 1 uM, 8 h).

Turning to WEASSLGLVTAALHMVIVAAFTWA [KMT2E], the protein stability index reads like this: (treatment: DMSO) 3.44 ± 0.31; (treatment: MLN4924 1 uM, 8 h) 3.16 ± 0.74.

In the case of WFQRQYLSTPDSQSLRCDLIRYIC [INTS3], the protein stability index reads like this: (treatment: DMSO) 2.25 ± 0.35; (treatment: MLN4924 1 uM, 8 h) 2.28 ± 0.44.

In turn, WGPWGPWGDCSRTCGGGVQFSSRD [ADAMTS4] had a protein stability index (treatment: DMSO) of 2.46 ± 0.36 and a protein stability index (treatment: MLN4924 1 uM, 8 h) of 2.16 ± 0.14.

Consider WKKQQKCDECGKIFSQSSALILHQ [ZNF396], for which the protein stability index is, setting by setting: (treatment: DMSO) 2.54 ± 0.25; (treatment: MLN4924 1 uM, 8 h) 2.91 ± 0.49.

In the case of WLLTHLLWFANAHLLSWFSPTIIF [DHCR7], the protein stability index (treatment: DMSO) was 3.36 ± 0.17 and the protein stability index (treatment: MLN4924 1 uM, 8 h) was 2.96 ± 0.3.

WMHTPEALSKHFIPYNAKFLGSTE [GULP1]: the protein stability index was 2.27 ± 0.12 (treatment: DMSO) and 2.3 ± 0.16 (treatment: MLN4924 1 uM, 8 h).

In the case of WSLGVIMYEMLIGYPPFCSETPQE [STK38L], the protein stability index reads like this: (treatment: DMSO) 2.85 ± 0.59; (treatment: MLN4924 1 uM, 8 h) 2.52 ± 0.44.

As to WSQPITTGKAPSPRAAHACATVGN [KLHDC2], the protein stability index by setting is: (treatment: DMSO) 3.84 ± 0.3; (treatment: MLN4924 1 uM, 8 h) 3.92 ± 0.2.

As to WTMQAYERNFWDPSPQLDTQQEIK [WDR41], the protein stability index is, setting by setting: (treatment: DMSO) 3.16 ± 0.19; (treatment: MLN4924 1 uM, 8 h) 3.46 ± 0.47.

Regarding YAKKESDLNGAQIKLREYEAALNS [LMNB1], the protein stability index stood at 4.07 ± 0.2 (treatment: DMSO) and 4.07 ± 0.3 (treatment: MLN4924 1 uM, 8 h).

Regarding YARYSLKSIDPVLMAPTCVFLASK [CCNC], the protein stability index by setting is: (treatment: DMSO) 2.16 ± 0.65; (treatment: MLN4924 1 uM, 8 h) 2 ± 0.3.

Consider YDFMNSAFSPIVILTERVSLPFKP [MIA2], for which the protein stability index (treatment: DMSO) turned out to be 2.22 ± 0.62 and the protein stability index (treatment: MLN4924 1 uM, 8 h) stood at 2.17 ± 0.18.

On to YDPRFNSWIQLPPMQERRASFYAC [KLHL14], for which the protein stability index runs as follows: (treatment: DMSO) 2.14 ± 0.27; (treatment: MLN4924 1 uM, 8 h) 2.22 ± 0.17.

YDYPEEEQLSGAGYRVSAALEEAD [EID1]: the protein stability index runs as follows: (treatment: DMSO) 5.38 ± 0.31; (treatment: MLN4924 1 uM, 8 h) 5.22 ± 0.32.

With YEAGVLAFYDVTGGMSHLHTFRAT [TRIM14], the protein stability index by setting is: (treatment: DMSO) 2.47 ± 0.45; (treatment: MLN4924 1 uM, 8 h) 2.07 ± 0.45.

Sequence YFLRGSLPWQGLKADTLKERYQKI [CSNK1G3] displayed a protein stability index (treatment: DMSO) of 2.17 ± 0.14 and a protein stability index (treatment: MLN4924 1 uM, 8 h) of 2.14 ± 0.39.

Turning to YHRETEGEEQSQYMHVGSCQHLSS [KCNA3], the protein stability index worked out at 4.09 ± 0.32 (treatment: DMSO) and 4.71 ± 0.47 (treatment: MLN4924 1 uM, 8 h).

Consider YICPDYQSYFKTIEDFQQKILLTK [KRT36], for which the protein stability index by setting is: (treatment: DMSO) 2.33 ± 0.59; (treatment: MLN4924 1 uM, 8 h) 2.13 ± 0.28.

Take YIHFFHTVLKQIAPEYFEKNEPYL [DENND6A]: the protein stability index (treatment: DMSO) worked out at 1.96 ± 0.5 and the protein stability index (treatment: MLN4924 1 uM, 8 h) is 2.77 ± 0.53.

In the case of YKFDPKTKRILTLQKANSWFNCRK [MMP1], the protein stability index is, setting by setting: (treatment: DMSO) 2.67 ± 0.27; (treatment: MLN4924 1 uM, 8 h) 2.54 ± 0.28.

In the case of YLTVKVWDLNMENRPIETYQVHDY [PPP2R2B], the protein stability index is, setting by setting: (treatment: DMSO) 2.25 ± 0.032; (treatment: MLN4924 1 uM, 8 h) 2.31 ± 0.2.

As to YNVYSTFQSHEPEFDYLKSLEIEE [PPP2R2B], the protein stability index (treatment: DMSO) came out at 3.86 ± 0.2 and the protein stability index (treatment: MLN4924 1 uM, 8 h) is 3.92 ± 0.26.

As for YQQIKAGAYDFPSPEWDTVTPEAK [CAMK2B], the protein stability index (treatment: DMSO) was found to be 3.89 ± 0.34 and the protein stability index (treatment: MLN4924 1 uM, 8 h) turned out to be 4.15 ± 0.32.

As to YQQLKLEGPGEQETKLDLISKGEE [SLC29A1], the protein stability index worked out at 5.25 ± 0.28 (treatment: DMSO) and 5.28 ± 0.13 (treatment: MLN4924 1 uM, 8 h).

As for YRAITSAYYRGAVGALLVYDIAKH [RAB11A], the protein stability index runs as follows: (treatment: DMSO) 2.43 ± 0.51; (treatment: MLN4924 1 uM, 8 h) 2.16 ± 0.33.

Regarding YRALLSGSNPPYLPFRDASFGNCT [CDC14A], the protein stability index is 2.44 ± 0.091 (treatment: DMSO) and 2.49 ± 0.17 (treatment: MLN4924 1 uM, 8 h).

Turning to YRSPEPDPYLSYRWKRRRSYSREH [CLK3], the protein stability index (treatment: DMSO) is 3.55 ± 0.33 and the protein stability index (treatment: MLN4924 1 uM, 8 h) was found to be 3.71 ± 0.12.

Regarding YRYCCKLNKKLKSYSLSRKKIVHY [CDC14A], the protein stability index by setting is: (treatment: DMSO) 2.27 ± 0.38; (treatment: MLN4924 1 uM, 8 h) 2.25 ± 0.53.

On to YSKESIIFGASSVDFSLSGRLLFA [GNB5], for which the protein stability index is, setting by setting: (treatment: DMSO) 2.84 ± 0.74; (treatment: MLN4924 1 uM, 8 h) 2.78 ± 0.68.

As for YSLAPNTPINQNVSLHQASLGGCS [NFE2L1], the protein stability index was determined as 3.54 ± 0.1 (treatment: DMSO) and 3.65 ± 0.18 (treatment: MLN4924 1 uM, 8 h).

Take YSQKESGHSNWLGDPEEPLTGFSW [ATL3]: the protein stability index was 1.92 ± 0.44 (treatment: DMSO) and 2.78 ± 0.1 (treatment: MLN4924 1 uM, 8 h).

As to YSYLVLLFPVFLATDYLRYKPVVL [SLC19A2], the protein stability index is 3.56 ± 0.34 (treatment: DMSO) and 3.01 ± 0.51 (treatment: MLN4924 1 uM, 8 h).

The sequence YTFTDTFTEKLWPLFYPGIRAGRK [TRIM39] gave a protein stability index (treatment: DMSO) of 2.69 ± 0.84 and a protein stability index (treatment: MLN4924 1 uM, 8 h) of 2.46 ± 0.5.

In the case of YTSAGTYGLDSVKKKCLEWLLNNL [GMCL1], the protein stability index is 2.17 ± 0.19 (treatment: DMSO) and 2.16 ± 0.26 (treatment: MLN4924 1 uM, 8 h).
